The target of this data set is T1, MBP-ComKBco (Bacillus coagulans DSM 1) (UniProt K4MVI2).
T1 sequence: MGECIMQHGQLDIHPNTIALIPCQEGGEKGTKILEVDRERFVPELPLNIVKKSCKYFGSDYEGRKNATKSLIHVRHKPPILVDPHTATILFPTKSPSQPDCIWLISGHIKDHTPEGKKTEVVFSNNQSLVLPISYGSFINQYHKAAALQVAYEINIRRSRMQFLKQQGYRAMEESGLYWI
In words: EMSA. The conditions noted are these: EMSA: binding buffer (composition not given) with poly(dI-dC), premixed on ice, 20 min at 30 C; 6% polyacrylamide gel in 1x TBE, 90 V, 60 min; pH and salt not ….

“ACGGGTACCATTTGCCGGAAATCGACGTGCCGGCAGCAGGACATAAAAGTGACCCGGTCGCAATAAAGGGGCAATAAGTTTTCGGCATGTTCATCCTTGCCATTACATATGCTTAATATCGCCCGTTGCTTGCCGGTAGCGAACCAAGAAAATACCATATGCTGAAAGATCAGAGGGATCAAACATGCATGGATTATGGACAGCTTATTTTGCGGGGCCCCGT (double strand) [comCBco promoter]”: the binding entry is given as “binds more weakly”.

Source of the values: PMC3536758.
